Measured values taken from patent US20070243582A1.

Target: human IgG (Sigma) (human)
Experiment: ELISA: SPA′ coated at 5 µg/mL, human IgG 25 µg/mL, detection with HRP-labeled protein L, absorbance at 405 nm

human IgG-binding activity per unit mass, relative to protein A manufactured by Repligen: 97%
Substance: SPA′ (part of protein A of Staphylococcus aureus Cowan I strain (JCM2179) except for the signal sequence (S domain) and the cell wall-binding domain (X domain)), produced by Brevibacillus choshinensis HPD31-OK having Spa′-pNK3260 (from UniProt P38507 37-327)
